Assay results published in patent US5856155, “Compounds and related methods for modulating potassium ion channels and assays for such compounds” (The Johns Hopkins University School Of Medicine, dated 1999).

T1: NH2-terminal domain of rshal1 (a.a. 1-228) (Kv4.2) (rat, UniProt Q63881)
T1 sequence: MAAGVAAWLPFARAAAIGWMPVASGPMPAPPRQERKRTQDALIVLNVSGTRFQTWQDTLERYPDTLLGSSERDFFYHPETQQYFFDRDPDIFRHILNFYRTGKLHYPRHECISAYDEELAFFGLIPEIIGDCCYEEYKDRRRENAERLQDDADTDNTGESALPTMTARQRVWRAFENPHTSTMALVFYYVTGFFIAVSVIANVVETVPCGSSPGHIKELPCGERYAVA

T2: NH2-terminal domain of DRK1 (a.a. 1-182) (Kv2.1) (rat, UniProt P15387)
T2 sequence: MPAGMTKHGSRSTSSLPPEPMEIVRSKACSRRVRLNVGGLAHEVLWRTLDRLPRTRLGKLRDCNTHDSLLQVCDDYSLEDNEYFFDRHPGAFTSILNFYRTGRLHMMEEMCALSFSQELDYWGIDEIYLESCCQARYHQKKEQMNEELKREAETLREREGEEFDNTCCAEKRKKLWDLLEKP

T3: NH2-terminal domain of NGK2b (a.a. 1-180) (Kv3.1) (rat, UniProt P25122)
T3 sequence: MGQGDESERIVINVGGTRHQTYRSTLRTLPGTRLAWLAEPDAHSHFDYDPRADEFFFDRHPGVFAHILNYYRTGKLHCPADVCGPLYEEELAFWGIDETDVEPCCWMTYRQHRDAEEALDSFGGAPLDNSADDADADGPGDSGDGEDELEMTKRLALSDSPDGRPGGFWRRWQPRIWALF

T4: NH2-terminal domain of Drosophila Shaw2 (Kv3 subfamily) (Drosophila, UniProt P17972)
T4 sequence: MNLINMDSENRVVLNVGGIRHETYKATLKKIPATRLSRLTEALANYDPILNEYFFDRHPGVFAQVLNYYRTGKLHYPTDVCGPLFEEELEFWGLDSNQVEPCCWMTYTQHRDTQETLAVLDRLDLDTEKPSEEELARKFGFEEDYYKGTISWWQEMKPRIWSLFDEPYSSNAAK

T5: NH2-terminal domain of Drosophila Shal2 (Kv4 subfamily) (Drosophila, UniProt P17971-1)
T5 sequence: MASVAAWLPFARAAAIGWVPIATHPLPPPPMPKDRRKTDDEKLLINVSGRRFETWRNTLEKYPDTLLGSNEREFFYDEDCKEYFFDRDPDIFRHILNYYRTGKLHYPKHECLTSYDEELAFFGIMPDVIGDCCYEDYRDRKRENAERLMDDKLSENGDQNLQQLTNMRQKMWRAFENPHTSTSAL

B1: ΔKvβ2(39-316) (other)
chain: YRNLGKSGLRVSCLGLGTWVTFGGQITDEMAEHLMTLAYDNGINLFDTAEVYAAGKAEVVLGNIIKKKGWRRSSLVITTKIFWGGKAETERGLSRKHIIEGLKASLERLQLEYVDVVFANRPDPNTPMEEIVRAMTHVINQGMAMYWGTSRWSSMEIMEAYSVARQFNLIPPICEQAEYHMFQREKVEVQLPELFHKIGVGAMTWSPLACGIVSGKYDSGIPPYSRASLKGYQWLKDKILSEEGRRQQAKLKELQAIAERLGCTLPQLAIAWCLRNEG
B2: ΔKvβ2(39-367) (other)
chain: YRNLGKSGLRVSCLGLGTWVTFGGQITDEMAEHLMTLAYDNGINLFDTAEVYAAGKAEVVLGNIIKKKGWRRSSLVITTKIFWGGKAETERGLSRKHIIEGLKASLERLQLEYVDVVFANRPDPNTPMEEIVRAMTHVINQGMAMYWGTSRWSSMEIMEAYSVARQFNLIPPICEQAEYHMFQREKVEVQLPELFHKIGVGAMTWSPLACGIVSGKYDSGIPPYSRASLKGYQWLKDKILSEEGRRQQAKLKELQAIAERLGCTLPQLAIAWCLRNEGVSSVLLGASNAEQLMENIGAIQVLPKLSSSIVHEIDSILGNKPYSKKDYRS
B3: Kvβ1 (a.a. 1-401) (other)
chain: MQVSIACTEHNLKSRNGEDRLLSKQSSTAPNVVNAARAKFRTVAIIARSLGTFTPQHHISLKESTAKQTGMKYRNLGKSGLRVSCLGLGTWVTFGGQISDEVAERLMTIAYESGVNLFDTAEVYAAGKAEVILGSIIKKKGWRRSSLVITTKLYWGGKAETERGLSRKHIIEGLKGSLQRLQLEYVDVVFANRPDSNTPMEEIVRAMTHVINQGMAMYWGTSRWSAMEIMEAYSVARQFNMIPPVCEQAEYHLFQREKVEVQLPELYHKIGVGAMTWSPLACGIISGKYGNGVPESSRASLKCYQWLKERIVSEEGRKQQNKLKDLSPIAERLGCTLPQLAVAWCLRNEGVSSVLLGSSTPEQLIENLGAIQVLPKMTSHVVNEIDNILRNKPYSKKDYRS
B4: Kvβ2 (a.a. 1-367) (other)
chain: MYPESTTGSPARLSLRQTGSPGMIYSTRYGSPKRQLQFYRNLGKSGLRVSCLGLGTWVTFGGQITDEMAEHLMTLAYDNGINLFDTAEVYAAGKAEVVLGNIIKKKGWRRSSLVITTKIFWGGKAETERGLSRKHIIEGLKASLERLQLEYVDVVFANRPDPNTPMEEIVRAMTHVINQGMAMYWGTSRWSSMEIMEAYSVARQFNLIPPICEQAEYHMFQREKVEVQLPELFHKIGVGAMTWSPLACGIVSGKYDSGIPPYSRASLKGYQWLKDKILSEEGRRQQAKLKELQAIAERLGCTLPQLAIAWCLRNEGVSSVLLGASNAEQLMENIGAIQVLPKLSSSIVHEIDSILGNKPYSKKDYRS

What was measured:
[1] = molecular target: B3; assay: cell-based or functional assay
[2] = molecular target: ShBΔ(6-46) (Drosophila, UniProt P08510); assay: cell-based or functional assay
[3] = molecular target: T6, GAL4 transcription activation (TA) domain alone (Saccharomyces cerevisiae (strain ATCC …, UniProt P04386)); assay: yeast two-hybrid control, growth on medium lacking histidine
From the text: (§1) Figure 2: FIG. 2 depicts the results of a yeast two-hybrid assay wherein YGH1 yeast cells were transformed by different pairwise combinations of the two-hybrid constructs that express either fusion proteins of the DNA binding domain of GAL4 or the transcription activation domain of GAL4. […] In the middle panel, the transformants carrying the two different fusion proteins were first selected by dextrose synthetic drop-out medium with no supplement of leucine and tryptophan (SD, −leu, −trp, +his) to ensure that in different combinations the transformants have both plasmids. In the lower panel, the identical number of cells in each combination were also dotted on the same medium without histidine (SD, −leu, −trp, −his). The transformants were allowed to grow at 30° C. for 65 hours.
(§2) Cytoplasmic NH_2— and COOH— terminal domains of different α-subunits were subcloned and expressed as fusion proteins of the GAL4 DNA binding (DB) domain. Kvβ1 was expressed as a fusion protein of either the GAL4 DNA binding (DB) domain or transcription activation (TA) domain. […] When Kvβ1 was coexpressed with the NH_2-terminal domain of RCK4 (NRCK4) (a.a. 1–306; an α-subunit sensitive to Kvβ1-mediated inactivation), the yeast transformants grew on a selective medium (FIG. 2, No. 1).

[4] = molecular target: GAL4 DNA binding (DB) domain alone (Saccharomyces cerevisiae (strain ATCC …, UniProt P04386)); assay: as above
From the text: as §1, §2

[5] = molecular target: T7, COOH-terminal domain of RCK4 (CRCK4, a.a. 566-651) (rat, UniProt P15385); assay: yeast two-hybrid, growth on medium lacking histidine
From the text: as §1, with “FIG. 6B” for “Figure 2: FIG. 2”, “FIG. 6B depicts the” for “2: FIG. 2 depicts the”, “lower panel, identical numbers” for “lower panel, the identical number”, “panel, identical numbers of cells” for “the identical number of cells”
(§3) In the case of Kvβ1, its subfamily-specific association with the NH_2-terminal domains of Kv1 α-subunits is essential for the Kvβ1-mediated inactivation. […] What is not known, however, is whether the failure to detect the Kv2.1-Kvβ2 complex is due to the incompatibility of these two subunits to interact or their limited overlapping expression in vivo. To test the specificity of the Kvβ2-α (interaction, pairwise combinations of Kvβ2 and the NH_2-terminal domains of eight different α-subunits were analyzed in the yeast two hybrid system. The eight α-subunits included were: ShB (Kamb et al., *Cell*, 50, 405–413 (1987); Pongs et al., *EMBO J.*, 7, (1988); Tempel et al., *Science*, 237, 770–775, (1987), Shabll, Shaw2, and Shal2 from Drosophila (Butler et al., *Nucleic Acids Res.*, 18, 2173–2174 (1990); Kv1.4 (or RCK4) (Stuhmer et al., *EMBO J.*, 8, 3235–3244 (1989), Kv2.1 (or DPK1) (Frech et al., *Nature*, 340, 642–645 (1989), Kv3.1 (or NGK2b) (Yokoyama et al., *FEBS Lett.*, 259, 37–42 (1989), and Kv4.2(or rShal1) (Baldwin et al., *Neuron*, 7, 471–483 (1991); Roberds et al., *Proc. Natl. Acad. Sci. USA*, 88, 1798–1802 (1991)) from rat.

[6] = molecular target: T1, NH2-terminal domain of rshal1 (a.a. …); assay: as above
From the text: as §1, with “FIG. 6B” for “Figure 2: FIG. 2”, “FIG. 6B depicts the” for “2: FIG. 2 depicts the”, “lower panel, identical numbers” for “lower panel, the identical number”, “panel, identical numbers of cells” for “the identical number of cells”
as §3

[7] = molecular target: T2, NH2-terminal domain of DRK1 (a.a. …); assay: as above
From the text: as §1, with “FIG. 6B” for “Figure 2: FIG. 2”, “FIG. 6B depicts the” for “2: FIG. 2 depicts the”, “lower panel, identical numbers” for “lower panel, the identical number”, “panel, identical numbers of cells” for “the identical number of cells”
as §3

[8] = molecular target: T3, NH2-terminal domain of NGK2b (a.a. …); assay: as above
From the text: as §1, with “FIG. 6B” for “Figure 2: FIG. 2”, “FIG. 6B depicts the” for “2: FIG. 2 depicts the”, “lower panel, identical numbers” for “lower panel, the identical number”, “panel, identical numbers of cells” for “the identical number of cells”
as §3

[9] = molecular target: T6, GAL4 transcription activation (TA) …; assay: yeast two-hybrid control (FIG. 6A, No. 1), growth on medium lacking histidine
From the text: as §1, with “FIG. 6A” for “Figure 2: FIG. 2”, “FIG. 6A depicts the” for “2: FIG. 2 depicts the”, “lower panel, identical numbers” for “lower panel, the identical number”, “panel, identical numbers of cells” for “the identical number of cells”
To begin the test, the NH_2-terminal domain and COOH-terminal domain of Kv1.4 (RCK4) were subcloned. These truncated cytoplasmic fragments, i.e., the NH_2-terminal domain (a.a. 1–306) and COOH-terminal domain (a.a. 566–651), were expressed individually with Kvβ2 as GAL4 fusion proteins. Using this methodology, if Kvβ2 were to interact with one or both truncated Kv1.4 fragments, the resultant interaction(s) would confer the ability upon the yeast transformants to grow on synthetic medium lacking histidine. Table 2 below defines the conditions of the yeast two-hybrid system in FIG. 6A.

[10] = molecular target: T7, COOH-terminal domain of RCK4 (CRCK4, …); assay: yeast two-hybrid, growth on medium lacking histidine; similar results with a β-galactosidase assay
From the text: as §1, with “FIG. 6A” for “Figure 2: FIG. 2”, “FIG. 6A depicts the” for “2: FIG. 2 depicts the”, “lower panel, identical numbers” for “lower panel, the identical number”, “panel, identical numbers of cells” for “the identical number of cells”
To begin the test, the NH_2-terminal domain and COOH-terminal domain of Kv1.4 (RCK4) were subcloned. These truncated cytoplasmic fragments, i.e., the NH_2-terminal domain (a.a. 1–306) and COOH-terminal domain (a.a. 566–651), were expressed individually with Kvβ2 as GAL4 fusion proteins. […]
Similar results were obtained using a β-galactosidase assay (data not shown). Thus, like Kvβ1, Kvβ2 was determined to interact with the NH_2-terminal domain of the Kv1.4 α-subunit.

[11] = molecular target: T4, NH2-terminal domain of Drosophila Shaw2 …; assay: yeast two-hybrid, growth on medium lacking histidine
From the text: as §1, with “FIG. 6B” for “Figure 2: FIG. 2”, “FIG. 6B depicts the” for “2: FIG. 2 depicts the”, “lower panel, identical numbers” for “lower panel, the identical number”, “panel, identical numbers of cells” for “the identical number of cells”
as §3

[12] = molecular target: T5, NH2-terminal domain of Drosophila Shal2 …; assay: as above
From the text: as §1, with “FIG. 6B” for “Figure 2: FIG. 2”, “FIG. 6B depicts the” for “2: FIG. 2 depicts the”, “lower panel, identical numbers” for “lower panel, the identical number”, “panel, identical numbers of cells” for “the identical number of cells”
as §3

percent of recorded cells with fast inactivation, whole cell voltage clamp recording of transfected COS cells [1] | percent of recorded cells with fast inactivation, whole cell voltage clamp recording of transfected COS cells [2] | binding result [3] | binding result [4] | binding result [5] | binding result [6] | binding result [7] | binding result [8] | binding result [9] | binding result [10] | binding result [11] | binding result [12] | Binder
61 % of cells | 61 % of cells |  |  |  |  |  |  |  |  |  |  | B1
22.5 % of cells | 22.5 % of cells |  |  |  |  |  |  |  |  |  |  | B2
 |  | no binding | no binding | no binding | no binding | no binding | no binding |  |  |  |  | B3
 |  |  |  |  | no binding | no binding | no binding | no binding | no binding | no binding | no binding | B4
